Assays:
GST-KRIT1 FERM = GST-KRIT1 FERM (human, UniProt O00522 420-734); experiment: pull-down
[1] = molecular target: KRIT1(L717,721A) FERM protein (human, UniProt O00522 420-734, L717A | L721A); experiment: ITC
[2] = molecular target: KRIT1 FERM domain, KRIT1(417-736) (human, UniProt O00522 417-736); experiment: ITC
Chain of KRIT1 FERM domain, KRIT1(417-736) (O00522 417-736): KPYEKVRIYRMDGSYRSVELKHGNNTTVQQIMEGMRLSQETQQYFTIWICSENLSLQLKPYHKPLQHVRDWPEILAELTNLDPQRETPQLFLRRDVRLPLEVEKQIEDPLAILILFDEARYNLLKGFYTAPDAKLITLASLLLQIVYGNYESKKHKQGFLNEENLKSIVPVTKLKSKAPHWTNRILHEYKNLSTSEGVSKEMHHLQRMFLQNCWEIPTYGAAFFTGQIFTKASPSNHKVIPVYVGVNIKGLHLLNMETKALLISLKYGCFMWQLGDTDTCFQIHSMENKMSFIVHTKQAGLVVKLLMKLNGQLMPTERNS

Chain of GST-KRIT1 FERM (O00522 420-734): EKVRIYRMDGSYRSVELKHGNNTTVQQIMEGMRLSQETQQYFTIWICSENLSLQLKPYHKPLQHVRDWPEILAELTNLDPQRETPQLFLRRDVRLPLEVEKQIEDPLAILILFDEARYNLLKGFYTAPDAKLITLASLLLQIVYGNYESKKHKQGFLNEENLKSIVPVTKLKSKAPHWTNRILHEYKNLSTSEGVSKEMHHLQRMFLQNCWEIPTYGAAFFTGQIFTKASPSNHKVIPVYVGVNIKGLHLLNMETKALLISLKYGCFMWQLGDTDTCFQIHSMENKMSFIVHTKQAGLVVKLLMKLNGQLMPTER
Chain of KRIT1(L717,721A) FERM protein (O00522 420-734 L717A/L721A): as the sequence (O00522 420-734) above, with L298A, L302A counted along it

binding result (GST-KRIT1 FERM) | fold reduction in affinity against wild type [1] [fold] | stoichiometry N [2] | Binder
binds | – | – | HEG1 cytoplasmic tail model protein (residues 1,274-1,381) (domain or fragment, human, UniProt Q9ULI3 1274-1381, looked up) RKNKNDISKLIFKSGDFQMSPYAEYPKNPRSQEWGREAIEMHENGSTKNLLQMTDVYYSPTSVRNPELERNGLYPAYTGLPGSRHSCIFPGQYNPSFISDESRRRDYF
– | > 100 | 1.01 | SRHSCIFPGQYNPSFISDESRRRDYF (peptide, UniProt Q9ULI3 1356-1381, looked up) [recombinant human HEG1 C26 peptide (residues 1,356-1,381)]

— PMC3461514 (The Journal of Cell Biology, 2012)
